Broadly, the stoichiometry N is the number of molecules, sites or subunits per partner or assembly.

This is an account of results in PMC11876703, “Structural basis for human NKCC1 inhibition by loop diuretic drugs” (The EMBO Journal, 2025).

Where a chain is given by its changes, count along the chain named. In names and notes the source's numbering stands.

In series [1] the target is T1, phospho-activated human NKCC1 (Na+-K+-Cl- cotransporter 1) (human), P55011.
T1 chain: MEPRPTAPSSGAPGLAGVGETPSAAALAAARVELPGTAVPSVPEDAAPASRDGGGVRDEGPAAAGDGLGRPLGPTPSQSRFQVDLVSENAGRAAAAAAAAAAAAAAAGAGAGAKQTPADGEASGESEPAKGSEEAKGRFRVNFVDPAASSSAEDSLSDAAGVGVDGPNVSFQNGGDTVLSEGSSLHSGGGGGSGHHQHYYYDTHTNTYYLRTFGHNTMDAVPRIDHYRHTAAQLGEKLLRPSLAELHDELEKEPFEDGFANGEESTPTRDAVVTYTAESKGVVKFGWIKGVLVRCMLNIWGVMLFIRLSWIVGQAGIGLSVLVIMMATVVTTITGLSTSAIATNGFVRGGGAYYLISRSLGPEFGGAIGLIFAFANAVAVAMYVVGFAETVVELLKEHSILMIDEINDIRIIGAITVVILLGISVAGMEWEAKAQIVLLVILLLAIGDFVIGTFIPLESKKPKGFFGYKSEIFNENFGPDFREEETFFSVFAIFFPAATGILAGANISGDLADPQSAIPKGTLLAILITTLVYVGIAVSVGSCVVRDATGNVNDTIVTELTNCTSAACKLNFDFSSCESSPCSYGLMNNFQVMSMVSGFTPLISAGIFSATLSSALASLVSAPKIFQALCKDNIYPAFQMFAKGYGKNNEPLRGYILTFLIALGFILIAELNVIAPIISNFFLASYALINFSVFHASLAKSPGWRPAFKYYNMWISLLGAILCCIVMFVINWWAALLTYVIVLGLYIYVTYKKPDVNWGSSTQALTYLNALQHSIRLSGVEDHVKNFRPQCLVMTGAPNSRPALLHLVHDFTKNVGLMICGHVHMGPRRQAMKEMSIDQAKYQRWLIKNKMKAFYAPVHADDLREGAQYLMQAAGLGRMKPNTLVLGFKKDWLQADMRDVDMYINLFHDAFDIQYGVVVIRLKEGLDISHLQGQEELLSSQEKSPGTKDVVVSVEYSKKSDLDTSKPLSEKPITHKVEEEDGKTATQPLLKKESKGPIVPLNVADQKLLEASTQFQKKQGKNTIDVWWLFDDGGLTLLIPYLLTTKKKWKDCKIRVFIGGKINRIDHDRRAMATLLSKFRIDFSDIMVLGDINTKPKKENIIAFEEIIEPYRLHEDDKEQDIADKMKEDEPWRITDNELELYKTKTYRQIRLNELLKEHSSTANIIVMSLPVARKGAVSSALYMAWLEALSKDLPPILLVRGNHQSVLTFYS
Description: cryo-EM structure; purified pNKCC1 in GDN, 20 mM HEPES pH 7.4, with 100 uM bumetanide, 100 uM torsemide (K+-free buffer) or 2 mM furosemide plus 100 uM ATP; homodimer. The settings on record: remark: other sources report otherwise.

Series [2] concerns the molecule itself. The series is described as above.

B1: phospho-activated human NKCC1 (Na+-K+-Cl- cotransporter 1), P55011 1-1212 (natural protein)
chain: T1 chain
modifications: here or on the partner: phosphothreonine at Thr212, Thr217 and Thr230 (verified by mass spectrometry); Thr203, Thr205 and Thr207 also named as phosphoacceptor sites confirmed by mass spectrometry; phosphothreonine at Thr212, Thr217 and Thr230 (verified by mass spectrometry); Thr203, Thr205 and Thr207 also named as phosphoacceptor sites confirmed by mass spectrometry
As to B1, the stoichiometry N in series [1] came to 2.

B2: phospho-activated human NKCC1 bearing K289N and A492E mutations (natural protein, UniProt P55011 1-1212, looked up)
chain: T1 chain with K289N, A492E
modifications: phosphothreonine at Thr212, Thr217 and Thr230 (verified by mass spectrometry; pT212 and pT217 clearly seen in the map, pT230 tentatively modeled); Thr203, Thr205 and Thr207 also named as phosphoacceptor sites confirmed by mass spectrometry
notes: Used for the furosemide/ATP-Mg2+ co-structure; The tag was used for Strep-Tactin purification and no cleavage step is described; also called pNKCC1; NKCC1 (furosemide co-structure); source: calyculin-A treated; purified (Strep-Tactin resin, Superose 6) in GDN with 100 uM ATP
For B2, the “stoichiometry N” value in series [2] turned out to be 2.
